According to the RNAGym collection of RNA variant scans (doi:10.7554/elife.80360):

B1: HDV Ribozyme (parent)
chain: GGCCGGCAUGGUCCCAGCCUCCUCGCUGGCGCCGGCUGGGCAACAUUCCGAGGGGACCGUCCCCUCGGUAAUGGCGAAUGGGACCCA

Variants of: B1
Experiment: self-cleavage, relative activity (ratio to wild type); higher = more cleavage; co-transcriptional

Row | Variant | self-cleavage
1 | C24G G81U | 0.0707
2 | G25A A42G | 0.158
3 | C24G C84U | 0.12
4 | G25A C26U | 0.339
5 | G25A C26A | 0.0852
6 | G25A C26G | 1.11
7 | C24U G25U | 0.138
8 | C24U U65G | 0.435
9 | C24U U65C | 0.597
10 | C24U U46C | 0.268
11 | C24U U46G | 0.415
12 | C24U U46A | 0.53
13 | C24U C84G | 0.157
14 | C24U C84A | 0.543
15 | C24A C84A | 0.787
16 | C24G G50U | 0.149
17 | C24G G50C | 0.0755
18 | C24A G55C | 0.818
19 | G25A G38A | 0.0536
20 | C24U C75G | 0.119
21 | C24A C57A | 0.842
22 | C24G G31U | 0.0604
23 | C24G G31A | 0.0594
24 | C24U U37G | 0.138

Row | Variant | self-cleavage
25 | C24A G52C | 0.803
26 | C24A G52A | 1.1
27 | C24G A87C | 0.128
28 | C24G A87G | 0.137
29 | C24G A87U | 0.0902
30 | C24G G34A | 0.0332
31 | C24G G34C | 0.0437
32 | C24G G34U | 0.0268
33 | C24A U60C | 0.702
34 | C24A U60G | 0.678
35 | C24U U79G | 0.244
36 | C24G C61U | 0.166
37 | C24A G82U | 0.328
38 | C24A G82C | 0.249
39 | C24A G74A | 0.12
40 | C24A G74U | 0.16
41 | C24U G67A | 0.554
42 | C24U G67U | 0.372
43 | G25A A51U | 0.318
44 | G25A A51C | 0.213
45 | G25A A87C | 0.183
46 | C24G A51G | 0.111
47 | C24G A51U | 0.237
48 | C24U G50U | 0.585

Row | Variant | self-cleavage
49 | C24A G54U | 0.736
50 | C24G C62G | 0.0415
51 | C24G C62U | 0.142
52 | C24G G80C | 0.271
53 | C24A G25A | 0.102
54 | C24A G50A | 0.688
55 | C24A G50U | 0.641
56 | C24U C36A | 0.0256
57 | C24U G80U | 0.102
58 | C24U G80A | 0.0525
59 | C24G G76C | 0.219
60 | C24U U69G | 0.764
61 | C24U U69A | 0.617
62 | C24U U69C | 0.831
63 | C24U G34A | 0.0292
64 | C24U G34C | 0.135
65 | C24G C26U | 0.514
66 | C24G C26G | 0.277
67 | C24A C64U | 0.866
68 | C24A C64G | 0.749
69 | C24A G73C | 0.211
70 | C24A G73A | 0.234
71 | C24A G73U | 0.288
72 | C24U G74A | 0.0639

Row | Variant | self-cleavage
73 | C24U G74C | 0.332
74 | C24G C49G | 0.0314
75 | C24G C49A | 0.0804
76 | C24U G38C | 0.0554
77 | C24U G38U | 0.115
78 | C24G U37A | 0.0674
79 | C24G U37G | 0
80 | C24A G67A | 0.802
81 | C24A G67U | 0.831
82 | C24G G28U | 0.0594
83 | C24G G28C | 0.214
84 | C24G G28A | 0.148
85 | C24A G68C | 0.628
86 | C24U A56G | 0.77
87 | G25A G50C | 0.181
88 | G25A C62A | 0.168
89 | C24A C48U | 0.799
90 | G25A | 0.24
91 | C24U G40C | 0.138
92 | G25A A71C | 0.185
93 | G25A A71U | 0.0369
94 | C24U C26A | 0.955
95 | C24A G29A | 0.106
96 | C24U G73A | 0.188

Row | Variant | self-cleavage
97 | C24G U79A | 0.0898
98 | C24A U72G | 0.364
99 | C24A U72C | 0.253
100 | C24G G53U | 0.117
101 | G25A C63G | 0.237
102 | C24A C66G | 0.731
103 | C24A C66U | 0.69
104 | C24A U65A | 0.735
105 | C24A U65G | 0.511
106 | C24G G73A | 0.151
107 | C24G G73U | 0.0841
108 | C24G A77U | 0.111
109 | C24G A77G | 0.298
110 | C24G A77C | 0.0386
111 | C24U A87U | 0.696
112 | C24U G31A | 0.169
113 | C24U G31C | 0.0615
114 | C24A C49A | 0.65
115 | C24U G54U | 0.618
116 | C24U G54A | 0.779
117 | C24U G54C | 0.748
118 | G25A C75G | 0.102
119 | G25A C75A | 0.166
120 | G25A C75U | 0.0923

Row | Variant | self-cleavage
121 | C24G A56U | 0.0831
122 | G25A C61G | 0.185
123 | G25A C61U | 0.225
124 | C24G C57A | 0.0432
125 | G25A G35C | 0.0627
126 | G25A G35U | 0.135
127 | G25A A83G | 0.151
128 | G25A A83C | 0.146
129 | C24U U72C | 0.104
130 | C24G U72C | 0.111
131 | C24G U72A | 0.0437
132 | C24G U72G | 0
133 | G25A C58U | 0.248
134 | C24A G76A | 0.769
135 | C24A G76U | 0.842
136 | C24A G76C | 0.936
137 | G25A A56G | 0.227
138 | G25A A56C | 0.325
139 | G25A A56U | 0.111
140 | C24A C86G | 0.724
141 | C24A C86A | 0.607
142 | G25A C85A | 0.237
143 | G25A C85U | 0.32
144 | G25A C85G | 0.237

Row | Variant | self-cleavage
145 | G25A G52U | 0.169
146 | C24A G38A | 0.208
147 | C24A G38C | 0.199
148 | C24G C48A | 0.0519
149 | C24G C48U | 0.14
150 | C24G A43U | 0.0237
151 | C24G A43G | 0.0354
152 | C24G A43C | 0.0811
153 | G25A G31A | 0.0773
154 | G25A G31U | 0.0536
155 | G25A C41A | 0.212
156 | G25A C41G | 0.177
157 | C24A U27G | 0.415
158 | C24G U60G | 0.0755
159 | C24G C36U | 0.0627
160 | C24A G31U | 0.0519
161 | C24A G31A | 0.0332
162 | C24U C49G | 0.536
163 | C24U C49A | 0.739
164 | C24U A77C | 0.119
165 | C24U G59U | 0.736
166 | C24U G59A | 0.623
167 | C24A G39C | 0.0692
